US20140193915, “COMPOSITIONS AND METHODS FOR CUSTOM SITE-SPECIFIC DNA RECOMBINASES” (Monsanto Technology, LLC, published 2014)

What was measured:
Test in all cases: cell_activity; E. coli
Details in all cases: tags: 6-His
[1] = biological target: T1, sN-TALER IV-2 (GinH106Y-TALE13) (synthetic)
T1 chain: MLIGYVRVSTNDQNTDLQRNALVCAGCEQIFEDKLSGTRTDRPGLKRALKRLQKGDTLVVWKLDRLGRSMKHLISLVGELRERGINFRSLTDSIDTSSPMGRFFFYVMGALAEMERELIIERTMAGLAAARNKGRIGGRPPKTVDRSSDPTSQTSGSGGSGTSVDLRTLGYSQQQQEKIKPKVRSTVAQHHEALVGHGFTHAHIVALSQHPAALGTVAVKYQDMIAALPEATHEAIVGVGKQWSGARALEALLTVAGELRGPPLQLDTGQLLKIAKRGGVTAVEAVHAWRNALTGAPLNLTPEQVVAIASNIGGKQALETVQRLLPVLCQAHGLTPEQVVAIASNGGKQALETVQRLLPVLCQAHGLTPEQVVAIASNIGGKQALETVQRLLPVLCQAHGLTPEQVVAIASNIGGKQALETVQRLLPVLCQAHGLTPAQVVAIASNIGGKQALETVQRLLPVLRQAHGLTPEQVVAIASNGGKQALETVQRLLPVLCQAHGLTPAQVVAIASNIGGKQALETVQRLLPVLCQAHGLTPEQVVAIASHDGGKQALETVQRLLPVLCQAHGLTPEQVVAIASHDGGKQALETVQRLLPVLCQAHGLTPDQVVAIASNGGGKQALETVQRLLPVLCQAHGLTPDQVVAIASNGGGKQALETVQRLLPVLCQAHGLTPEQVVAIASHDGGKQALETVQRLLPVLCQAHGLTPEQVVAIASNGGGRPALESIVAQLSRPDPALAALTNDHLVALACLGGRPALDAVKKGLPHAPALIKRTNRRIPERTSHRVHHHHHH
Description: (§1) To test for recombination, E. coli DH5alpha cells were co-transformed with different combinations of TALER expression construct and TALER reporter construct pairs (Tables 6 and 7). The N-TALER expression and reporter constructs were in an approximate 1:1 mass ratio during the transformation. The co-transformed bacteria were plated on media with chloramphenicol, kanamycin, and X-gal then incubated at 37° C. for 18 to 36 hours. Control samples consisted of transformations using the reporter construct alone. Control transformants were similarly plated. The bacterial transformation protocol was either heat shock or electroporation per standard molecular biology techniques.

sN-TALER IV-3.2 = biological target: T2, sN-TALER IV-3.2 (synthetic)
T2 chain: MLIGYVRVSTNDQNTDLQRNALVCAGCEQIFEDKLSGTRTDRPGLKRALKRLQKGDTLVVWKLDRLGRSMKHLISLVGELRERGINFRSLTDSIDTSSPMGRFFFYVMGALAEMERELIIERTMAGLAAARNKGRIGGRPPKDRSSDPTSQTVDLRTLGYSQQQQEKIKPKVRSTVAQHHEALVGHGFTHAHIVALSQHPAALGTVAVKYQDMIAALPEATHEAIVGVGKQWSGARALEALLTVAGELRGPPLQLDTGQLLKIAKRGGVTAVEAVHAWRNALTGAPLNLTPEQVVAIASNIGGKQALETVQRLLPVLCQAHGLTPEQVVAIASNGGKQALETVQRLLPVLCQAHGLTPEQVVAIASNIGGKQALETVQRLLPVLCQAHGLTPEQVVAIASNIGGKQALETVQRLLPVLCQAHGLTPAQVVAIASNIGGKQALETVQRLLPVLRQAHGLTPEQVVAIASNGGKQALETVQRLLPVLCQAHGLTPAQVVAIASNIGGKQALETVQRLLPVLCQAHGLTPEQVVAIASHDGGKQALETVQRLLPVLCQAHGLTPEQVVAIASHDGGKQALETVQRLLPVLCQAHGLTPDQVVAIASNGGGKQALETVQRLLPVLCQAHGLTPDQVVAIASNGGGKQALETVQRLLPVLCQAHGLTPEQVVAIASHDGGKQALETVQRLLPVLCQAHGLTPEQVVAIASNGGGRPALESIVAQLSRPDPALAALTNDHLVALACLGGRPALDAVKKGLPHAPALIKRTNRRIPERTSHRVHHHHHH
Description: as §1

sN-TALER IV-4 = biological target: T3, sN-TALER IV-4 (synthetic)
T3 chain: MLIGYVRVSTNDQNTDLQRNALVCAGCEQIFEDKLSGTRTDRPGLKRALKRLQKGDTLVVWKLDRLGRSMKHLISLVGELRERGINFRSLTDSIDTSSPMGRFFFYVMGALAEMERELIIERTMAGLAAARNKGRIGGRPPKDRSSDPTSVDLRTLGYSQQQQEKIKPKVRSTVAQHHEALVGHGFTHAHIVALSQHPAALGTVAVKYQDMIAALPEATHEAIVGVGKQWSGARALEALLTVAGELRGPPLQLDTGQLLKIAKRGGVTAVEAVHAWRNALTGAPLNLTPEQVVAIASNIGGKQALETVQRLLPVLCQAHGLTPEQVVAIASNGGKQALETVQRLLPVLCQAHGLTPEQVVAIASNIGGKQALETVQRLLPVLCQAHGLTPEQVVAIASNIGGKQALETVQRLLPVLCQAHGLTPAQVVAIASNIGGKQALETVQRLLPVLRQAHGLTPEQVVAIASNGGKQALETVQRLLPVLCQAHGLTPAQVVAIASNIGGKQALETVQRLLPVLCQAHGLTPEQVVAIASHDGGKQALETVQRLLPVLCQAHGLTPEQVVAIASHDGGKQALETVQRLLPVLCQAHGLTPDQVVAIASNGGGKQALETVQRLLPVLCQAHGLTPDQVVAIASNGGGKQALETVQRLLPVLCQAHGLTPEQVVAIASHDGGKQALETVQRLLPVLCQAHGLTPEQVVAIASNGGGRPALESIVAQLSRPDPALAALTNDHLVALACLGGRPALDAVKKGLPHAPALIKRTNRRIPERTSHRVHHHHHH
Description: as §1

B1: Gin18TALE+0 (dsDNA)
DNA 1: AGAAGGTATTTATACCAAAACCATGGTTTACATATAAATACCTTCT
DNA 2: AGAAGGTATTTATATGTAAACCATGGTTTTGGTATAAATACCTTCT
B1 gave an activity [1] of 1 score, an activity (sN-TALER IV-3.2) of 3 score and an activity (sN-TALER IV-4) of 4 score.

B2: Gin20TALE+0 (dsDNA)
DNA 1: AGAAGGTATTTATATCCAAAACCATGGTTTACAGTATAAATACCTTCT
DNA 2: AGAAGGTATTTATACTGTAAACCATGGTTTTGGATATAAATACCTTCT
In the case of B2, the activity [1] is reported as 1 score, the activity (sN-TALER IV-3.2) is reported as 1 score and the activity (sN-TALER IV-4) is reported as 1 score.
